Data: publication PMC9966811, “Comparison of Glyphosate-Degradation Ability of Aldo-Keto Reductase (AKR4) Proteins in Maize, Soybean and Rice” (International Journal of Molecular Sciences, 2023)

What was measured:
Assay in all cases: purified protein
Settings in all cases: NADPH 0.1 mM, pH 7.4, 25 °C, 10 mM beta-mercaptoethanol
purified protein [1] = substrate: O=Cc1ccccc1; type: biochemical, Zea mays
purified protein [2] = substrate: O=Cc1ccccc1; type: biochemical, Echinochloa colona
purified protein [3] = substrate: O=Cc1ccccc1; type: biochemical, Oryza sativa

B1: ZmAKR4 (Zea mays) (protein)
chain: MARHFVLNTGAKIPSVGLGTWQSDPGVVGNAVYAAVKAGYRHIDCARVYGNEKEIGLALKKLFEEGVVKREDLFITSKLWNDHHAPEDVPEALNDSLNDLQLEYLDLYLIHWPFRVKKGTNTSPENFVTPDFPATWGAMEKLYDAGKARAIGVSNFSSKKLGDLLAVARVPPAVDQVECHPGWQQTKLHSFCQSTGVHLTAYSPLGSPGTTWMNGNVLKEPIIISIAEKLGKTSAQVALRWNIQMGHSVLPKSTNEERIKQNLDVYDWSIPDDLLAKFSEIKQARLLRGNFIVNPESVYKTHEELWDGEL
notes: full CDS from leaf cDNA in pET32a (vector tag, about 50 kD), E. coli BL21, Ni-NTA
Km (purified protein [1]): 1060 ± 290 µM
kcat (purified protein [1]): 0.7522 ± 0.0293 s⁻¹

B2: EcAKR4 (Echinochloa colona) (protein)
chain: MARHFVLNTGAKIPSVGLGTWQSDPGVVGDAVYAAVKAGYRHIDCARVYGNEKEIGLALKKLFEEGVVKREDLFITSKLWNDHHAPEDVPEALNESLKDLQLDYLDLYLIHWPFRVKKGTNTSPENFITPDIPATWGAMEKLYDAGKARAIGVSNFSSKKLGDLLAVARVPPAVDQVECHPGWQQTKLHNFCQSTGVHLSAYSPLGSPGTTWMNGNVLKEPVIISIAEKLGKTPAQVALRWNIQMGHSVLPKSTNEERIKQNLDVYDWSIPDDLLAKFSEIKQARLLRGNFIVNPQSVYKTHEELWDGEL
notes: full CDS from leaf cDNA in pET32a as printed (about 40 kD on gel), E. coli BL21, Ni-NTA
Km (purified protein [2]): 870 ± 250 µM
kcat (purified protein [2]): 0.7052 ± 0.0253 s⁻¹

B3: OsAKR4-1 (Oryza sativa Japonica Group) (protein)
chain: MAKHFVLNTGAKIPSVGLGTWQSDPGVVGDAVYAAVKAGYRHIDCARMYKNENEVGIALKKLFEEGVVKREDLFITSKLWCDCHAPEDVPESLDKTLSDLQLEYLDLYLIHWPFRVKKGSGISNTEDYIPPDIPSTWGAMEKLYDSGKSRAIGVSNFSSKKLGDLLAVACVPPAVDQVECHPGWQQTKLHNFCQSTGVHLSAYSPLGSPGSTWMNSNVLKESVIISIAEKLGKTPAQVALHWNIQMGHSVLPKSVTEERIKQNIDVYDWSIPEDLLVKFSEIKQVRLLRGDVIVNPHSVYKTHEELWDGEI
notes: as for B1
Km (purified protein [3]): 2476 ± 540 µM
kcat (purified protein [3]): 0.676 ± 0.0363 s⁻¹
